Measured values taken from patent publication US20040067880A1 (priority 2002, published 2004).

Columns and labels:
[1] = biological target: CS receptor on human cells (HepG2 hepatoma cells; human liver metastases of colorectal cancer) (human); assay: indirect immunofluorescence on frozen sections of human liver MCC from six patients
[2] = biological target: CS receptor on human cells (HepG2 hepatoma cells; human liver metastases of colorectal cancer) (human); assay: cell-based or functional assay
[3] = biological target: CS receptor on mouse colorectal carcinoma MCA26 cells (mouse); assay: cell-based or functional assay
[4] = biological target: CS receptor on rat cells (rat liver sections; rat hepatoma H4IIE) (rat); assay: cell-based or functional assay
[5] = Cytosine deaminase enzymatic activity assay (conversion of [3H]cytosine to [3H]uracil); type: biochemical; conditions: purified recombinant protein
Description: Crude cell extracts were prepared by sonicating cells in a buffer (50 mM Na phosphate, pH 7.8 and 0.3 M NaCl) followed by centrifugation. Cytosine deaminase activity was determined by measuring the production of uracil in a reaction mixture (50 μl) containing 5 mM, 6-[^3H]cytosine (0.45 Ci/mol), 50 mM Tris-HCl pH 7.8, 1 mM DTT, 1 mM EDTA and cellular crude extract (10-20 μg/ml) or eluted fractions. After 1-2 hour of incubation at 37° C., 10 μl aliquots were withdrawn and analyzed by thin layer chromatography (Silica Gel 60, Selecto Scientific, Norcross, Ga.). Chromatograms were developed in 1-butanol /water (86/14, v/v). Positions of cytosine and uracil were identified by […]. The corresponding spots for cytosine and uracil were cut out and radioactivities were determined in a scintillation counter. In some cases, 6-[3H] 5-FC (4.0 Ci/mmol) was used as a substrate in the assay.

HepG2 cells [6] = type: cell-based, human; conditions: HepG2, 0.64 μM protein 4 hrs, 1 mM 5-FC, viability after 4 days
HL60 cells = assay: Cytotoxicity assay with 5-FC in HL60 cells; type: cell-based; conditions: HL-60, 0.64 μM protein 4 hrs, protein removed (washed), 1 mM 5-FC
HepG2 cells [7] = assay: Persistent effect on 5-FC cell killing of HepG2 cells; type: cell-based, human; conditions: HepG2, 0.5 μM protein 4 hrs, then 5-FC at intervals
Description: FIG. 7. Persistent effect of CD-CS on cell killing of HepG2 cells. HepG2 cells were treated with 0.8 μM of CD-CS or with CD as a control for 4 hr. Cells was washed with fresh medium and cultured in the regular medium. Cultures were split once every 6 days. At different time intervals, cells were treated with 1 mM 5-FC. Cell viability was counted 4 days thereafter. Each point represents an average of three independent experiments.
HepG2 cells were treated with 0.5 μM of CD-CS or CD for 4 hrs and the recombinant proteins were removed from the medium and the cells were maintained in fresh medium thereafter. At different time intervals, cells were treated with 5-FC. Sustained cell killing was observed even 28 days after the removal of the recombinant protein (FIG. 7).

Molecule: full-length recombinant CS protein (malarial circumsporozoite protein) (from UniProt P19597 27-396) (ligand)
- positive staining cells [1]: > 90%

Molecule: CD-CS fusion protein (cytosine deaminase fused to repeat-deleted malarial circumsporozoite protein, encoded by pCD5-73.15.5) (from UniProt P19597 27-29; P25524 2-427; P19597 30-396)
- LD50 of CD-CS-mediated cell killing, HepG2 [2]: 0.22 µM
- LD50 of CD-CS-mediated cell killing, MCA26 [3]: 0.22 µM
- LD50 of CD-CS-mediated cell killing, rat hepatoma H-4-II-E [4]: 0.22 µM

B1: CD: recombinant Escherichia coli cytosine deaminase with 6 histidine residues at the C-terminus (protein, UniProt P25524 2-427, looked up)
Cytosine deaminase: SNNALQTIINARLPGEEGLWQIHLQDGKISAIDAQSGVMPITENSLDAEQGLVIPPFVEPHIHLDTTQTAGQPNWNQSGTLFEGIERWAERKALLTHDDVKQRAWQTLKWQIANGIQHVRTHVDVSDATLTALKAMLEVKQEVAPWIDLQIVAFPQEGILSYPNGEALLEEALRLGADVVGAIPHFEFTREYGVESLHKTFALAQKYDRLIDVHCDEIDDEQSRFVETVAALAHHEGMGARVTASHTTAMHSYNGAYTSRLFRLLKMSGINFVANPLVNIHLQGRFDTYPKRRGITRVKEMLESGINVCFGHDDVFDPWYPLGTANMLQVLHMGLHVCQLMGYGQINDGLNLITHHSARTLNLQDYGIAAGNSANLIILPAENGFDALRRQVPVRYSVRGGKVIASTQPAQTTVYLEQPEAIDYKR
modifications: C-terminal His6 tag
notes: recombinant Escherichia coli cytosine deaminase with 6 histidine residues at the C-terminus
- specific activity, conversion of [3H]cytosine to [3H]uracil [5]: 3,308 nmol/min/mg protein
- sensitivity of protein-treated cells to 5-FC (HepG2 cells [6]; unwashed): sensitive
- sensitivity of protein-pretreated cells to 5-FC / cell killing (HepG2 cells [6]; washed): could not
- cell death upon subsequent addition of 5-FC (HL60 cells): failed to induce cell death
- cell killing (basal level) (HepG2 cells [7]): < 10%
